The values that follow come from patent US20230021388A1 (VELOSBIO, published 2023).

Where a chain is given by its changes, count along the chain named. Numbers in names are those of the source.

The target in assay [1] is T1, recombinant human ROR1 extracellular domain (human, UniProt Q01973 30-406).
T1 construct: biotinylated for the filter lifts; also called huROR1-ECD; human ROR1-ECD
Put plainly: capture filter lift. The procedure:
Subsequently, the filter was applied to the agar plates as described above. For detection of antigen binding, the filter was rinsed briefly in PBS, and transferred to biotinylated huROR1-ECD (ACROBiosystems, cat. #RO1-H522y) in 5% M-P.
Filters were incubated with 2.3 nM biotinylated ROR1 diluted in 5% M-P for 2 h at 25° C. with constant agitation, and washed 5 times, 2 minutes each wash, with constant agitation in PBS-T. Alternatively, filters were washed more rapidly using a squirt bottle and sintered glass funnel for vacuum filtration. The filters were transferred to 10 mL of High Sensitivity Neutravidin, HRP conjugate (Thermo Scientific, cat. #31030) diluted 5000-fold in 1% BSA in PBS and incubated for 1 h at 25° C. The filters were then washed 5 times in PBS-T and were developed with 1-Step Ultra TMB-Blotting.
All libraries were initially screened by capture lift to identify variants with improved binding. The capture lift assay, described in Example 1, enables the filter lift assay to discern variants that bind antigen more strongly based on the staining intensity. In order to determine the optimal concentration of antigen to use for screening, biotinylated huROR1-ECD was titrated on a capture lift of Ab1 Fab. Binding to Ab1 was clearly visible at antigen concentrations ≥23 nM and the signal was diminished at lower huROR1 concentrations. […] In addition, for more stringent screening, filters were probed with lower concentrations of antigen and/or development of the filter was terminated earlier, before the Ab1 staining was visible. […] In this example, approximately 250 library variants were plated. Twelve variants clearly bound huROR1 (FIG. 4, numbered).

The target of assay [2] is T1, recombinant human ROR1 extracellular …. Nature of the assay: ELISA, soluble Fab on coated huROR1-ECD. The procedure: The previously described filter lift assay provides a visual, qualitative assessment of antigen binding (Example 1). In order to assess the ROR1 binding activity of Ab1 Fab in a more quantitative fashion, an ELISA assay was developed. A 96-well Costar-3366 plate was coated with 50 μL/well of 1 μg/mL human ROR1-ECD (ACROBiosystems, cat. #RO1-H522y) in PBS overnight at 4° C. The plate was rinsed once with PBS-T and blocked with 100 μL/well of 5% M-P for 1 h at 25° C. Fab samples were serially diluted 3-fold using 5% M-P and 50 μL/well was incubated for 1 h at 25° C. The plate was washed three times with PBS-T and 50 μL/well anti-human kappa, and HRP conjugate (Southern Biotech, cat. #2060-05) diluted 10,000-fold in 5% M-P was added for 1 h at 25° C. In certain assays (extended wash format), the plate was placed in large volumes (up to 1 L) of PBS-T and incubated, with mixing, for 2-5 h prior to the addition of anti-human kappa, HRP conjugate. The plate was washed three times with PBS-T, and developed with 50 μL/well 1-Step Ultra TMB-ELISA (Thermo Scientific, cat. #34028). The reaction was terminated by the addition of 2 N H2504 and the A450 was determined using a Spectramax plate reader.
A general note: An ELISA detects its analyte on a solid surface through an enzyme-linked reagent.

By Kd is commonly meant the equilibrium constant for the complex coming apart.

T1 sequence (Q01973 30-406 limits assumed): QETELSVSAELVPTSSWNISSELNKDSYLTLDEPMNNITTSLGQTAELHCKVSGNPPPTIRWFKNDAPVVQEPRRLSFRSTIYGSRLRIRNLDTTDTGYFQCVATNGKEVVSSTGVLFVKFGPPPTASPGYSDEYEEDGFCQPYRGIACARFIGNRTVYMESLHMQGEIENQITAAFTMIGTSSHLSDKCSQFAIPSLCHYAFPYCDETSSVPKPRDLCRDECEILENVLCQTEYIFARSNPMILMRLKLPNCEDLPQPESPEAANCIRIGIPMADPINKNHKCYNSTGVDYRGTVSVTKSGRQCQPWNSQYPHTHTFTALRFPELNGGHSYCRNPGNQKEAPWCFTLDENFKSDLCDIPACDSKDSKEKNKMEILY

B1: Ab1 Fab variant H1 A30I (Fab, V domains shown)
VH: QVQLQESGPGLVKPSQTLSLTCTVSGYIFTAYNIHWVRQAPGQGLEWMGSFDPYDGGSSYNQKFKDRLTISKDTSKNQVVLTMTNMDPVDTATYYCARGWYYFDYWGHGTLVTVSS
VL: DIVMTQTPLSLPVTPGEPASISCRASKSISKYLAWYQQKPGQAPRLLIYSGSTLQSGIPPRFSGSGYGTDFTLTINNIESEDAAYYFCQQHDESPYTFGEGTKVEIK
notes: Fab
Turning to B1, the binding result in assay [1] was “binds”.

B2: Ab1 Fab variant H2 S57A (Fab, V domains shown)
VH: B1 VH with I28A, S50A
VL: B1 VL
Turning to B2, the Kd in assay [2] came to 3.6 nM.

B3: Ab1 Fab variant H2 F58P (Fab, V domains shown)
VH: B1 VH with I28A, F51P
VL: B1 VL
notes: Fab
Take B3: the binding result in assay [1] is listed as “binds”.

B4: Ab1 Fab variant H3 Y111A (Fab, V domains shown)
VH: B1 VH with I28A, Y101A
VL: B1 VL
notes: Fab
For the molecule B4, the binding result in assay [1] is on record as “binds”.

B5: Ab1 Fab variant H2 P60T (Fab, V domains shown)
VH: B1 VH with I28A, P53T
VL: B1 VL
notes: Fab
B5: in assay [1], the binding result is “binds”.

B6: Ab1 Fab variant H1 Y29S (Fab, V domains shown)
VH: B1 VH with Y27S, I28A
VL: B1 VL
notes: Fab
In the case of B6, the binding result in assay [1] is recorded as “binds”.

B7: Ab1 Fab variant H2 K73C (Fab, V domains shown)
VH: B1 VH with I28A, K63C
VL: B1 VL
notes: Fab
Consider B7, for which the binding result in assay [1] is on record as “binds”.

B8: Ab1 Fab variant H3 F136L (Fab, V domains shown)
VH: B1 VH with I28A, F103L
VL: B1 VL
notes: Fab
As to B8, the binding result in assay [1] is recorded as “binds”.

B9: Ab1 Fab variant H2 S68Q (Fab, V domains shown)
VH: B1 VH with I28A, S58Q
VL: B1 VL
notes: Fab
In the case of B9, in assay [1], the binding result is listed as “binds”.

B10: Ab1 Fab variant H2 G67H (Fab, V domains shown)
VH: B1 VH with I28A, G57H
VL: B1 VL
notes: Fab
With B10, the binding result in assay [1] is recorded as “binds”.

B11: Ab1 Fab variant H2 D59S (Fab, V domains shown)
VH: B1 VH with I28A, D52S
VL: B1 VL
notes: Fab
On to B11, for which the binding result in assay [1] is “binds”.

B12: Ab1 Fab variant H2 S68I (Fab, V domains shown)
VH: B1 VH with I28A, S58I
VL: B1 VL
notes: Fab
Regarding B12, the binding result in assay [1] was “binds”.

B13: Ab1 Fab variant H1 G27T (Fab, V domains shown)
VH: B1 VH with G26T, I28A
VL: B1 VL
notes: Fab
As to B13, the binding result in assay [1] is on record as “binds”.

B14: Ab1 Fab variant H1 N40K (Fab, V domains shown)
VH: B1 VH with I28A, N33K
VL: B1 VL
notes: Fab
Regarding B14, the binding result in assay [1] is “binds”.

B15: Ab1 Fab variant H3 Y138Q (Fab, V domains shown)
VH: B1 VH with I28A, Y105Q
VL: B1 VL
notes: Fab
With B15, the binding result in assay [1] was “binds”.

B16: Ab1 Fab variant H1 T32D (Fab, V domains shown)
VH: B1 VH with I28A, T30D
VL: B1 VL
notes: Fab
Regarding B16, the binding result in assay [1] is on record as “binds”.

B17: Ab1 Fab variant H2 K75G (Fab, V domains shown)
VH: B1 VH with I28A, K65G
VL: B1 VL
notes: Fab
With B17, the binding result in assay [1] is “binds”.

B18: Ab1 Fab variant H2 S68E (Fab, V domains shown)
VH: B1 VH with I28A, S58E
VL: B1 VL
notes: Fab
Consider B18, for which the binding result in assay [1] is given as “binds”.

B19: Ab1 Fab variant H2 P60G (Fab, V domains shown)
VH: B1 VH with I28A, P53G
VL: B1 VL
notes: Fab
B19: the binding result in assay [1] is given as “binds”.

B20: Ab1 Fab variant H2 K73S (Fab, V domains shown)
VH: B1 VH with I28A, K63S
VL: B1 VL
notes: Fab
In the case of B20, the binding result in assay [1] is given as “binds”.

B21: Ab1 Fab variant H1 G27R (Fab, V domains shown)
VH: B1 VH with G26R, I28A
VL: B1 VL
notes: Fab
For B21, in assay [1], the binding result is “binds”.

B22: Ab1 Fab variant H1 F31L (Fab, V domains shown)
VH: B1 VH with I28A, F29L
VL: B1 VL
notes: Fab
Consider B22, for which the binding result in assay [1] is listed as “binds”.

B23: Ab1 Fab variant H3 A107T (Fab, V domains shown)
VH: B1 VH with I28A, A97T
VL: B1 VL
notes: Fab
Regarding B23, the binding result in assay [1] is listed as “binds”.

B24: Ab1 Fab variant H1 F31W (Fab, V domains shown)
VH: B1 VH with I28A, F29W
VL: B1 VL
notes: Fab
Turning to B24, the binding result in assay [1] is “binds”.

B25: Ab1 Fab variant H2 D65N (Fab, V domains shown)
VH: B1 VH with I28A, D55N
VL: B1 VL
notes: Fab
On to B25, for which the binding result in assay [1] is “binds”.

B26: Ab1 Fab variant H2 G67S (Fab, V domains shown)
VH: B1 VH with I28A, G57S
VL: B1 VL
notes: Fab
Consider B26, for which the binding result in assay [1] was “binds”.

B27: Ab1 Fab variant H2 K75A (Fab, V domains shown)
VH: B1 VH with I28A, K65A
VL: B1 VL
notes: Fab
Consider B27, for which the binding result in assay [1] was “binds”.

B28: Ab1 Fab variant H1 Y29K (Fab, V domains shown)
VH: B1 VH with Y27K, I28A
VL: B1 VL
notes: Fab
With B28, the binding result in assay [1] was “binds”.

B29: Ab1 Fab variant H2 D65T (Fab, V domains shown)
VH: B1 VH with I28A, D55T
VL: B1 VL
notes: Fab
B29: in assay [1], the binding result was “binds”.

B30: Ab1 Fab variant H3 R108G (Fab, V domains shown)
VH: B1 VH with I28A, R98G
VL: B1 VL
notes: Fab
Take B30: the binding result in assay [1] is listed as “binds”.

B31: Ab1 Fab variant H3 A107V (Fab, V domains shown)
VH: B1 VH with I28A, A97V
VL: B1 VL
notes: Fab
For the molecule B31, the binding result in assay [1] is “binds”.

B32: Ab1 Fab variant H3 Y111L (Fab, V domains shown)
VH: B1 VH with I28A, Y101L
VL: B1 VL
notes: Fab
As for B32, in assay [1], the binding result was “binds”.

B33: Ab1 Fab variant H2 G67M (Fab, V domains shown)
VH: B1 VH with I28A, G57M
VL: B1 VL
notes: Fab
Regarding B33, the binding result in assay [1] is “binds”.

B34: Ab1 Fab variant H1 G27D (Fab, V domains shown)
VH: B1 VH with G26D, I28A
VL: B1 VL
notes: Fab
For B34, in assay [1], the binding result is recorded as “binds”.

B35: Ab1 Fab variant H1 A30R (Fab, V domains shown)
VH: B1 VH with I28R
VL: B1 VL
notes: Fab
As to B35, in assay [1], the binding result is “binds”.
